What was measured:
Glucagon = Glucagon (UniProt P01275)
[Gly]^2-glucagon = [Gly]^2-glucagon (UniProt P01275)
His^1-Ser^2-NPY = His^1-Ser^2-NPY (UniProt P01303)
[1] = tested on: peptides of the growth hormone releasing factor (GRF) family

Chain of Glucagon (P01275 53-81): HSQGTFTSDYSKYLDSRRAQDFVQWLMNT
Chain of [Gly]^2-glucagon (P01275 whole entry, looked up): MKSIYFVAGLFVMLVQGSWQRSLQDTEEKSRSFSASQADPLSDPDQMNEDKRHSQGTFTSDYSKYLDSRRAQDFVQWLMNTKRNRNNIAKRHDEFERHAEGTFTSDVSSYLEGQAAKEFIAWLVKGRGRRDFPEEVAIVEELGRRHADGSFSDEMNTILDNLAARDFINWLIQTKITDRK

Row | Substance | Km [M] of DP IV-catalyzed hydrolysis (Glucagon) [M] | Km [M] of DP IV-catalyzed hydrolysis ([Gly]^2-glucagon) [M] | Km [M] of DP IV-catalyzed hydrolysis (His^1-Ser^2-NPY) [M] | hydrolysis (MALDI-TOF MS, capillary zone electrophoresis) [1]
1 | DP IV | 3.8e-06 | 2.2e-05 | 6.8e-05 | 
2 | recombinant human DP IV, wild type |  |  |  | All peptides were hydrolyzed by porcine DP IV, recombinant human DP IV or DP IV activity of the human serum
